“Also recorded” adds a separate entry of the source.
B1: M2: tetracycline aptamer domain M2 (SEQ ID NO: 16) controlling splicing of a conditional exon in SaCas9 gene (nucleic acid)
chain: TTTCAGGCGCTAAAACATACCAGATGAAAGTCTGGAGAGGTGAAGAATACGACCACCTAGCGCCTGAAA
modifications: listed as DNA, chemistry not fully specified
B2: M3: tetracycline aptamer domain M3 (SEQ ID NO: 18) controlling splicing of a conditional exon in SaCas9 gene (nucleic acid)
chain: TTTCAGGCGCCAAAACATACCAGATGAAAGTCTGGAGAGGTGAAGAATACGACCACCTGGCGCCTGAAA
modifications: listed as DNA, chemistry not fully specified

System: sgRNA target sequence in pCAG-EGxxFP plasmid, HEK293T cells
Experiment: EGxxFP assay of candidate SaCas9 constructs (reconstituted EGFP expression)
Assay type: cell-based
Settings: tetracycline aptamer and conditional exon inserted in position 2 and 8; FIG. 9
Procedure: The activity of candidate SaCas9 genes were then tested in an EGxxFP assay as described by Mashiko D et al. (see Sci Rep (2013) 3:3355). In short, the pCAG-EGxxFP plasmid containing 5′ and 3′ EGFP fragments that shares 482 bp under ubiquitous CAG promoter was prepared. An approximately 500 bp region containing the sgRNA target sequence was placed between EGFP fragments of pCAG-EGxxFP plasmid. The pCAG-EGxxFP plasmid was cotransfected with the candidate SaCas9 construct and sgRNA into HEK293T cells. When the candidate SaCas9 gene is properly transcribed and spliced, the target sequence in the EGxxFT gene was digested by sgRNA guided SaCas9 protein, the homologous dependent repair took place and reconstituted the EGFP expression.

| Molecule | regulating the expression of SaCas9 (EGxxFP assay) |
| --- | --- |
| B1 | worked well; also recorded: performed the best |
| B2 | worked well |

From patent publication US20220127642A1, “CONTROLLABLE GENOME EDITING SYSTEM” (APPLIED STEMCELL, INC., priority 2019, published 2022)
